Reference: patent publication US20090041755A1, “Methods and Compositions For PDGF-D Activation and Inhibition” (Ludwig Institute For Cancer Research, priority 2005, published 2009)

How the values were obtained:
[1] = target: latent PDGF-CC (Homo sapiens, UniProt Q9NRA1); details: cited from earlier work
[2] = target: chimeric PDGF-C/PDGF-D molecule with CUB domain from PDGF-C and growth factor domain from PDGF-D (UniProt Q9NRA1)
[3] = target: chimeric PDGF-D/PDGF-C molecule with CUB domain from PDGF-D and growth factor domain from PDGF-C (UniProt Q9GZP0)
Sequence of chimeric PDGF-D/PDGF-C molecule with CUB domain from PDGF-D and growth factor domain from PDGF-C (Q9GZP0 other isoform, or with tags, fused parts or gaps mutant): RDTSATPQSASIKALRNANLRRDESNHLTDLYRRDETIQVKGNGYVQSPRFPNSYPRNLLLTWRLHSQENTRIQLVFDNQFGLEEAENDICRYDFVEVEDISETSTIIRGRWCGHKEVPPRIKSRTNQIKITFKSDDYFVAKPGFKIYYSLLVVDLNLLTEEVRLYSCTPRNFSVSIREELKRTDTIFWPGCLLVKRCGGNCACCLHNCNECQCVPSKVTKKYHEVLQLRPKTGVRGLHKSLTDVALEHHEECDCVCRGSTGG

Sequence of latent PDGF-CC (Q9NRA1 23-345): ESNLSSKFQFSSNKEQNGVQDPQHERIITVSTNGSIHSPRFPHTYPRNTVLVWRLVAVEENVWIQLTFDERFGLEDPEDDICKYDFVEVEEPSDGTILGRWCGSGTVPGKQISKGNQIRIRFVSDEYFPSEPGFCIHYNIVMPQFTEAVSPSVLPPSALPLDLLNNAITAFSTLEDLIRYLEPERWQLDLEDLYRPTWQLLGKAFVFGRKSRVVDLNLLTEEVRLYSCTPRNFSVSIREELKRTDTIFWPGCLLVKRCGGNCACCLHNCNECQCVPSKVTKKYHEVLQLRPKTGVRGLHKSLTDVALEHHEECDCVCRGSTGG
Sequence of chimeric PDGF-C/PDGF-D molecule with CUB domain from PDGF-C and growth factor domain from PDGF-D (Q9NRA1 whole entry, looked up, change not shown, the tested form may be a part): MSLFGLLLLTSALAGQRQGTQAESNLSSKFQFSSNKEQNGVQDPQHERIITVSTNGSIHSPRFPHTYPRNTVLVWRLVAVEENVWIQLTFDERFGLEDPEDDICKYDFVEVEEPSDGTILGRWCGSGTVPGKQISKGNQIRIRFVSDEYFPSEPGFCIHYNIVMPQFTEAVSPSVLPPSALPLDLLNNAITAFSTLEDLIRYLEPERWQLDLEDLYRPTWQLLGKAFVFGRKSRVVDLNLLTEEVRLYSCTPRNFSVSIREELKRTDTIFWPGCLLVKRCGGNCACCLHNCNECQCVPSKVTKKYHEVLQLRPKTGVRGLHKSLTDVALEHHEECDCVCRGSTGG

Substance | activation of latent PDGF-CC ([1]; Fredriksson et al. 2004) | substrate specificity of the protease ([1]; PDGF-CC versus PDGF-DD) | proteolytic release of the growth factor domain (co-transfection, SDS-PAGE and immunoblot) [2] | proteolytic release of the growth factor domain (co-transfection, SDS-PAGE and immunoblot) [3]
tPA: tissue plasminogen activator, specific activator of PDGF-CC | activates latent PDGF-CC | specific for PDGF-CC | – | –
urokinase plasminogen activator (uPA) | – | – | Analysis of all the PDGF-D/PDGF-C chimeric molecules revealed that no released growth factor domain could be visualized using specific antibodies | Analysis of all the PDGF-D/PDGF-C chimeric molecules revealed that no released growth factor domain could be visualized using specific antibodies
